According to US20040087498A1, “Modified factor VII” (Novo Nordisk Health Care AG, priority 1991, published 2004):
Values joined by “and” are separate entries in the source; they are usually repeats but may differ in a detail not shown here. Equal values may be shown once.

How the values were obtained:
[1] = test system: vascular lesion formation; experiment: Balloon brachial artery model in baboons; assay type: in vivo; conditions: baboon brachial artery balloon model, preliminary studies
Protocol: Under halothane anesthesia and sterile operating conditions, animals labeled with autologous ^111In-platelets received intravenous infusions of DEGR-FVIIa using the tether system for continuous intravenous administration (initial bolus injection of 1 mg/kg followed by continuous intravenous infusion of 50 μg/kg/hr. The animals received surgical carotid endarterectomy, bilateral brachial artery or bilateral femoral artery Fogarty balloon catheter angioplasties.
The DEGR-FVIIa was administered for 7 or 30 days by continuous infusions via venous catheter using the tether system. […]
For morphometric analysis of VLF, sections embedded in paraffin and stained for connective tissue components (collagen, elastin) and with hematoxylin-eosin, were evaluated using a Zeiss Photoscope coupled with image analysis system (Thomas Optical Measurement Systems, Columbus, Ga.) consisting of high resolution (580 lines) CCD microscope camera coupled to a high resolution (700 lines) monitor, an IBM 386 chip, 80 MB computer with high resolution graphics digitablet for image acquisition and storage. Quantitative image analysis was performed using a morphometric software driver (Optimas, Bioscan, Inc., Edmonds, Wash.). Arterial cross-sections were analyzed with respect to the total area of neointimal proliferative lesion and corresponding area of arterial media. […]

[2] = ELISA for DEGR-FVIIa in rabbit plasma; assay type: in vivo; conditions: for FVIIa ELISA, DEGR-FVIIa in rabbit plasma, individual animals: listed as DEGR-FVIIa
Protocol: The test drug delivery for the animals consisted of an initial bolus injection immediately prior to balloon angioplasty, followed by a continuous systemic infusion by osmotic pump via the internal jugular vein. The duration of the drug infusion was 3 days. The control animals received heparin, 150 U/kg IV bolus, prior to balloon angioplasty followed by saline infusion. The DEGR-FVIIa treated animals received a 1 mg/kg bolus injection followed by 50 μg/kg/hr infusion.
Prothrombin time and concentration of DEGR-FVIIa in the blood were determined at immediately pre-bolus injection of the test compound, 1 hr post bolus injection, and at 3 days at the end of continuous infusion. One to two mls of citrated plasma was obtained and the prothrombin times and antigen levels determined.
An ELISA assay was used to determine the concentration of DEGR-FVIIa in plasma samples from the control and DEGR-FVIIa treated rabbits. The assay involved first diluting an anti-human FVII monoclonal antibody (Dr. W. Kisiel, U. of New Mexico) to 2.0 μg/ml in 0.1 M carbonate buffer pH 9.6, and adding 100 μl/well to 96-well plates. The plates were then incubated at 4° C. overnight and subsequently washed two times using wash buffer (PBS, pH 7.4, containing 0.05% Tween 20).
After blocking, a standard dilution series of DEGR-FVIIa ranging from 20-0.027 ng/ml was added, along with a dilution series of the test rabbit plasma (1:100 to 1:4000 in blocking buffer) applied at 100 μl/well. Non-immune rabbit plasma was used as a negative control. Plates were then incubated for 1 hr at 37° C. followed by four washes with wash buffer.
DEGR-FVIIa was detected by adding 100 μl/well of a 1:1,000 dilution of rabbit anti-human FVII polyclonal antibody (Dr. Kisiel, U. New Mexico) in blocking buffer. Plates were incubated for 1 hr at 37° C., followed by five washes with wash buffer. Specific antibody binding was detected using 100 μl/well of a 1:2,000 dilution of goat anti-rabbit IgG antibody-peroxidase conjugate (Tago, Inc.). Plates were incubated for 1 hr at 37° C. and washed six times with wash buffer. Finally, 100 μl of substrate solution was added (0.42 mg/ml of o-phenylenediamine dihydrochloride [OPD] in 0.2 M citrate buffer, pH 5.0, containing 0.3% H2O2). After 1-3 min at room temp. the color reaction was stopped by adding 100 μl/well of 1N H2SO4 and the plates were read at 490 nm on a Microplate spectrophotometer. The concentration of DEGR-FVIIa in the plasma samples was determined by comparing the A490 values of the unknown to those of the DEGR-FVIIa standard curve.

Substance: DEGR-Factor VIIa: Recombinant human Factor VIIa with its active site derivatized by Dansyl-L-Glu-Gly-Arg-chloromethyl Ketone (DEGRck)
- benefit of therapy [1]: no measurable benefit
- FVIIa ELISA, DEGR-FVIIa in rabbit plasma, individual animals ([2]; 1 hour after 1 mg/kg bolus, 50 μg/kg/hr infusion): 3,210 ng/ml and 4,950 ng/ml and 4,543 ng/ml and 4,900 ng/ml and 4,600 ng/ml and 2,145 ng/ml and 2,830 ng/ml
- FVIIa ELISA, DEGR-FVIIa in rabbit plasma, individual animals ([2]; 3 days, end of 50 μg/kg/hr infusion): 102 ng/mL and 7 ng/mL and 661 ng/mL and 117 ng/mL and 502 ng/mL and 212 ng/mL and 228 ng/mL
- FVIIa ELISA, DEGR-FVIIa in rabbit plasma, individual animals ([2]; Pretreatment): 0 ng/ml and 1 ng/ml and 13 ng/ml (2×) and 65 ng/ml and 4 ng/ml and 9 ng/ml
- DEGR-FVIIa antigen level in the plasma ([2]; rabbit, 1 hr time point, range over animals): 2 to 6 µg/mL
